T1: PDZD2_2, O15018
T1 sequence (O15018 329-429, limits assumed, looked up): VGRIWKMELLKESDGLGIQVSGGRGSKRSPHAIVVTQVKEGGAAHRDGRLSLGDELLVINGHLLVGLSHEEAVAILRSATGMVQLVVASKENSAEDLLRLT

T2: PTPN13_1, Q12923
T2 sequence (Q12923 1088-1188, limits assumed, looked up): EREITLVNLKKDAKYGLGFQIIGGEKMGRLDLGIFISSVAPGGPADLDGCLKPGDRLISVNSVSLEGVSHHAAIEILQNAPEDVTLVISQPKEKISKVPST

T3: GRIP1_2, Q9Y3R0
T3 sequence (Q9Y3R0 145-248, limits assumed, looked up): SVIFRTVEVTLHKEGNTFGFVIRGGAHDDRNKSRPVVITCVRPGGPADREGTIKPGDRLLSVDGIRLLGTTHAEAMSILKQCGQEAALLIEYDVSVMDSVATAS

T4: PCLO, Q9Y6V0
T4 sequence (Q9Y6V0 4491-4600, limits assumed, looked up): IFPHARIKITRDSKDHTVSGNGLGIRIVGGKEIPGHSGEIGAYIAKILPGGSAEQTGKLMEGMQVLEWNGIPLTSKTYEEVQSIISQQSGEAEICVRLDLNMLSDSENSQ

T5: DFNB31_2, Q9P202
T5 sequence (Q9P202 274-371, limits assumed, looked up): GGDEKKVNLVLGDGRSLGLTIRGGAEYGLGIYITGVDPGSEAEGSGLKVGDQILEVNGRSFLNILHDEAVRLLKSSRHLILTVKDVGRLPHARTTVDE

T6: LRRC7, Q96NW7
T6 sequence (Q96NW7 1440-1537, limits assumed, looked up): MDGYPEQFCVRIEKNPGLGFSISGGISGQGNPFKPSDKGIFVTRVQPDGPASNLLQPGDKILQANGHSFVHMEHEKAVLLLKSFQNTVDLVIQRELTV

T7: SYNJ2BP, P57105
T7 sequence (P57105 8-110, limits assumed, looked up): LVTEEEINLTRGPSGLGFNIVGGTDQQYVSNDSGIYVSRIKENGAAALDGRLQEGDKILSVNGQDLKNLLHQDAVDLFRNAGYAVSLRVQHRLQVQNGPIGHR

T8: SNTG1, Q9NSN8
T8 sequence (Q9NSN8 52-150, limits assumed, looked up): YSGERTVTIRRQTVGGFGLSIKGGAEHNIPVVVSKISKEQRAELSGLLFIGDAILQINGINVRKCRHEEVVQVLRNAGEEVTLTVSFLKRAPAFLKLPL

T9: TIAM2, Q8IVF5
T9 sequence (Q8IVF5 885-986, limits assumed, looked up): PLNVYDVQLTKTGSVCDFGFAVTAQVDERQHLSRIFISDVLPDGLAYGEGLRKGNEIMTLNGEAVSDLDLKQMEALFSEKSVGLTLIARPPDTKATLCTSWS

T10: FRMPD1, Q5SYB0
T10 sequence (Q5SYB0 52-145, limits assumed, looked up): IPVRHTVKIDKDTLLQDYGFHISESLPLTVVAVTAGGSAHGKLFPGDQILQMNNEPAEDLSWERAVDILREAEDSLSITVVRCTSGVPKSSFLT

T11: PDZRN3_1, Q9UPQ7
T11 sequence (Q9UPQ7 244-349, limits assumed, looked up): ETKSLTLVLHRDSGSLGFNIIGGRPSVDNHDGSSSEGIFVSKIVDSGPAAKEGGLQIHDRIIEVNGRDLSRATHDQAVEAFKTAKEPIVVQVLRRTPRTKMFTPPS

T12: MPP2, Q14168
T12 sequence (Q14168 180-250, limits assumed, looked up): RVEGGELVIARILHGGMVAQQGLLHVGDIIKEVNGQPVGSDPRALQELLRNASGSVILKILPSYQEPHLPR

T13: TX1BP3, O14907
T13 sequence (O14907 10-122, limits assumed, looked up): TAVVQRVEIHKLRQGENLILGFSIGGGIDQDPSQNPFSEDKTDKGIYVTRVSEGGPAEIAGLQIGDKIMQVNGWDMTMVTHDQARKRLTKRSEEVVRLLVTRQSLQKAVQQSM

T14: DFNB31_1, Q9P202
T14 sequence (Q9P202 135-233, limits assumed, looked up): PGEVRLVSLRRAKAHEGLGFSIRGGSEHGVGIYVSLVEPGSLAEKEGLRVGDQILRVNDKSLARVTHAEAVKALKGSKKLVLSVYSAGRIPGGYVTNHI

B1: DUSP10, Q9Y6W6 (peptide)
chain: PKLMGVETVV

target: T1, PDZD2_2, O15018; experiment: holdup assay; design: key: below the threshold = too weak to quantify, mostly under pKd 3.1 to 4; details: plain residues with an end cap or a label only (N-terminal biotin on a linker: ado-ado)

Binder | pKd
B1 | 4.22

target: T2, PTPN13_1, Q12923; experiment: holdup assay; design: key: below the threshold = too weak to quantify, mostly under pKd 3.1 to 4; details: plain residues with an end cap or a label only (N-terminal biotin on a linker: ado-ado)

Binder | pKd
B1 | 3.48

target: T3, GRIP1_2, Q9Y3R0; experiment: holdup assay; design: key: below the threshold = too weak to quantify, mostly under pKd 3.1 to 4; details: plain residues with an end cap or a label only (N-terminal biotin on a linker: ado-ado)

Binder | pKd
B1 | below the threshold

target: T4, PCLO, Q9Y6V0; experiment: holdup assay; design: key: below the threshold = too weak to quantify, mostly under pKd 3.1 to 4; details: plain residues with an end cap or a label only (N-terminal biotin on a linker: ado-ado)

Binder | pKd
B1 | below the threshold

target: CASK, O14936; experiment: holdup assay; design: key: below the threshold = too weak to quantify, mostly under pKd 3.1 to 4; details: plain residues with an end cap or a label only (N-terminal biotin on a linker: ado-ado)
Sequence (O14936 487-570): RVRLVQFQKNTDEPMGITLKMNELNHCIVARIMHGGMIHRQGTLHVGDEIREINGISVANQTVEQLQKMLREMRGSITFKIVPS

Binder | pKd
B1 | below the threshold

target: T5, DFNB31_2, Q9P202; experiment: holdup assay; design: key: below the threshold = too weak to quantify, mostly under pKd 3.1 to 4; details: plain residues with an end cap or a label only (N-terminal biotin on a linker: ado-ado)

Binder | pKd
B1 | below the threshold

target: DLG5_1, Q8TDM6; experiment: holdup assay; design: key: below the threshold = too weak to quantify, mostly under pKd 3.1 to 4; details: plain residues with an end cap or a label only (N-terminal biotin on a linker: ado-ado)
Sequence (Q8TDM6 617-713): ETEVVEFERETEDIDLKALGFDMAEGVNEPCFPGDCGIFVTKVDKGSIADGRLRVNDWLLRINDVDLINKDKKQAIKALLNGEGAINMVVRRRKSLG

Binder | pKd
B1 | below the threshold

target: T6, LRRC7, Q96NW7; experiment: holdup assay; design: key: below the threshold = too weak to quantify, mostly under pKd 3.1 to 4; details: plain residues with an end cap or a label only (N-terminal biotin on a linker: ado-ado)

Binder | pKd
B1 | 3.83

target: T7, SYNJ2BP, P57105; experiment: holdup assay; design: key: below the threshold = too weak to quantify, mostly under pKd 3.1 to 4; details: plain residues with an end cap or a label only (N-terminal biotin on a linker: ado-ado)

Binder | pKd
B1 | 4.69

target: T8, SNTG1, Q9NSN8; experiment: holdup assay; design: key: below the threshold = too weak to quantify, mostly under pKd 3.1 to 4; details: plain residues with an end cap or a label only (N-terminal biotin on a linker: ado-ado)

Binder | pKd
B1 | 4.47

target: T9, TIAM2, Q8IVF5; experiment: holdup assay; design: key: below the threshold = too weak to quantify, mostly under pKd 3.1 to 4; details: plain residues with an end cap or a label only (N-terminal biotin on a linker: ado-ado)

Binder | pKd
B1 | below the threshold

target: FRMPD2_3, Q68DX3; experiment: holdup assay; design: key: below the threshold = too weak to quantify, mostly under pKd 3.1 to 4; details: plain residues with an end cap or a label only (N-terminal biotin on a linker: ado-ado)
Sequence (Q68DX3 1073-1166): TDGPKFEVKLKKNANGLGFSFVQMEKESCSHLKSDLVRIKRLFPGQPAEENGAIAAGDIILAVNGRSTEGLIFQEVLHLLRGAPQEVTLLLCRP

Binder | pKd
B1 | 3.61

target: GRIP2_6, Q9C0E4; experiment: holdup assay; design: key: below the threshold = too weak to quantify, mostly under pKd 3.1 to 4; details: plain residues with an end cap or a label only (N-terminal biotin on a linker: ado-ado)
Sequence (Q9C0E4 648-740): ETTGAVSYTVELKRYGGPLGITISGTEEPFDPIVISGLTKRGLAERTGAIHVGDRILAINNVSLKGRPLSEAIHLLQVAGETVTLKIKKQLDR

Binder | pKd
B1 | below the threshold

target: T10, FRMPD1, Q5SYB0; experiment: holdup assay; design: key: below the threshold = too weak to quantify, mostly under pKd 3.1 to 4; details: plain residues with an end cap or a label only (N-terminal biotin on a linker: ado-ado)

Binder | pKd
B1 | below the threshold

target: GIPC2, Q8TF65; experiment: holdup assay; design: key: below the threshold = too weak to quantify, mostly under pKd 3.1 to 4; details: plain residues with an end cap or a label only (N-terminal biotin on a linker: ado-ado)
Sequence (Q8TF65 112-203): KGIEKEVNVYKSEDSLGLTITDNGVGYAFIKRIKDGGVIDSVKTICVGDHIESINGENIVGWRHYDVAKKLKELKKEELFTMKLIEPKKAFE

Binder | pKd
B1 | below the threshold

target: T11, PDZRN3_1, Q9UPQ7; experiment: holdup assay; design: key: below the threshold = too weak to quantify, mostly under pKd 3.1 to 4; details: plain residues with an end cap or a label only (N-terminal biotin on a linker: ado-ado)

Binder | pKd
B1 | 3.69

target: T12, MPP2, Q14168; experiment: holdup assay; design: key: below the threshold = too weak to quantify, mostly under pKd 3.1 to 4; details: plain residues with an end cap or a label only (N-terminal biotin on a linker: ado-ado)

Binder | pKd
B1 | below the threshold

target: MAGI1_2, Q96QZ7; experiment: holdup assay; design: key: below the threshold = too weak to quantify, mostly under pKd 3.1 to 4; details: plain residues with an end cap or a label only (N-terminal biotin on a linker: ado-ado)
Sequence (Q96QZ7 456-580): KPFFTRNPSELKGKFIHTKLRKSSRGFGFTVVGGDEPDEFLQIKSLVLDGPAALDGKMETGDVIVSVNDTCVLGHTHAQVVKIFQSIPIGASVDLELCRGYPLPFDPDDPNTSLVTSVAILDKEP

Binder | pKd
B1 | 4.14

target: Inadl_3, Q8NI35; experiment: holdup assay; design: key: below the threshold = too weak to quantify, mostly under pKd 3.1 to 4; details: plain residues with an end cap or a label only (N-terminal biotin on a linker: ado-ado)
Sequence (Q8NI35 359-469): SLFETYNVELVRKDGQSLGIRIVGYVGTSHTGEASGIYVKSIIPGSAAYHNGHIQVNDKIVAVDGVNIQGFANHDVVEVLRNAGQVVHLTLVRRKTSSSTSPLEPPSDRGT

Binder | pKd
B1 | 4.51

target: T13, TX1BP3, O14907; experiment: holdup assay; design: key: below the threshold = too weak to quantify, mostly under pKd 3.1 to 4; details: plain residues with an end cap or a label only (N-terminal biotin on a linker: ado-ado)

Binder | pKd
B1 | 4.15

target: T14, DFNB31_1, Q9P202; experiment: holdup assay; design: key: below the threshold = too weak to quantify, mostly under pKd 3.1 to 4; details: plain residues with an end cap or a label only (N-terminal biotin on a linker: ado-ado)

Binder | pKd
B1 | 4.09

target: SNX27, Q96L92; experiment: holdup assay; design: key: below the threshold = too weak to quantify, mostly under pKd 3.1 to 4; details: plain residues with an end cap or a label only (N-terminal biotin on a linker: ado-ado)

Binder | pKd
B1 | 5.23

target: FRMPD4, Q14CM0; experiment: holdup assay; design: key: below the threshold = too weak to quantify, mostly under pKd 3.1 to 4; details: plain residues with an end cap or a label only (N-terminal biotin on a linker: ado-ado)
Sequence (Q14CM0 67-160): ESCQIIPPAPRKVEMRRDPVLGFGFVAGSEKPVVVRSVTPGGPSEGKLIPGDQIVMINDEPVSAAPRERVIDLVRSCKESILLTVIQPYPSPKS

Binder | pKd
B1 | below the threshold
